Experimental findings from patent publication US20250352659A1, “SELF-STABILIZING LINKER CONJUGATES” (priority 2023, published 2025) are described below.

In test [1] the target is T1, B7H3 (human, UniProt Q5ZPR3 29-534).
T1 sequence (looked up): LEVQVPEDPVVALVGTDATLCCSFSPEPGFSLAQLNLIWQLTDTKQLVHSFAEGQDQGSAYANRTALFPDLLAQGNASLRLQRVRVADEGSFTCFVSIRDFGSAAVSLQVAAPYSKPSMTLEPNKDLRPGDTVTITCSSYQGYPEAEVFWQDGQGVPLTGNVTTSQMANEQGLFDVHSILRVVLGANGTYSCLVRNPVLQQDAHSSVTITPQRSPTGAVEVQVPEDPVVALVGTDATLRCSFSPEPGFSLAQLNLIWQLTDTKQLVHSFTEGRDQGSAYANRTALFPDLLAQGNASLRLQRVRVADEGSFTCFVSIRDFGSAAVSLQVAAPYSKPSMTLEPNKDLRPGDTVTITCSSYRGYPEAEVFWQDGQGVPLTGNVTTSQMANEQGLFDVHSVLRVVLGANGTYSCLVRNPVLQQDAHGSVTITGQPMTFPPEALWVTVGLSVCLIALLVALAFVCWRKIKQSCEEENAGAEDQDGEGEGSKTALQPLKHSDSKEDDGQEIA
Briefly: cell-based or functional assay.

Test [2] has as its target T1, B7H3. Briefly: cell-based or functional assay. This is another data set of the same source.

Read-outs that look alike come from different tables or passages of the source.

B1: ADC4-12 (antibody, human IgG1, kappa, V domains shown)
VH: QVQLVQSGAEVKKPGSSVKVSCKASGYTFTNYVMHWVRQAPGQGLEWMGYINPYNDDVKYNEKFKGRVTITADESTSTAYMELSSLRSEDTAVYYCARWGYYGSPLYYFDYWGQGTLVTVSS
VL: EIVLTQSPATLSLSPGERATLSCRASSRLIYMHWYQQKPGQAPRPLIYATSNLASGIPARFSGSGSGTDFTLTISSLEPEDFAVYYCQQWNSNPPTFGQGTKVEIKR
modifications: conjugator-linker-payload on cysteine thiols after TCEP reduction (DAR8), maleimide hydrolysed; residues not numbered; structure given only as a drawing
Turning to B1, in the test with B7H3 [1], the “EC50 (nM), ADC direct killing, NCI-H1650 (High), 3D” value (“EC50 (nM) … (High), 3D” for short) worked out at 2.3 nM; the “Emax (%), ADC direct killing, Capan-1 (Low), 3D” value (shortened to “Emax (%) … (Low), 3D”) came to 61.9%; the “Emax (%), ADC direct killing, NCI-H1650 (High), 3D” value (“Emax (%) … (High), 3D” below) turned out to be 83.2%.

B2: ADC4-10 (antibody, human IgG1, kappa, V domains shown)
VH: B1 VH
VL: B1 VL
modifications: conjugator-linker-payload on cysteine thiols after TCEP reduction (DAR8), maleimide hydrolysed; residues not numbered; structure given only as a drawing
For B2, in the test with B7H3 [2], the “EC50 (nM), ADC direct killing, Capan-1 (Low), 3D” value (“EC50 (nM) … (Low), 3D” for short) stood at 0.6 nM; the “EC50 (nM) … (High), 3D” value amounted to 1.7 nM; the “Emax (%) … (Low), 3D” value amounted to 68.4%; the “Emax (%) … (High), 3D” value stood at 80%.

B3: ADC4-16 (antibody, human IgG1, kappa, V domains shown)
VH: B1 VH
VL: B1 VL
modifications: conjugator-linker-payload on cysteine thiols after TCEP reduction (DAR8), maleimide hydrolysed; residues not numbered; structure given only as a drawing
Regarding B3, in the test with B7H3 [1], the “EC50 (nM) … (Low), 3D” value is 0.6 nM; the “EC50 (nM) … (High), 3D” value came out at 1.5 nM; the “Emax (%) … (Low), 3D” value was found to be 62.2%; the “Emax (%) … (High), 3D” value stood at 76.4%.

B4: ADC4-9 (antibody, human IgG1, kappa, V domains shown)
VH: B1 VH
VL: B1 VL
modifications: conjugator-linker-payload on cysteine thiols after TCEP reduction (DAR8), maleimide hydrolysed; residues not numbered; structure given only as a drawing
Turning to B4, in the test with B7H3 [2], the “EC50 (nM) … (Low), 3D” value was found to be 0.8 nM; the “EC50 (nM) … (High), 3D” value was 2.8 nM; the “Emax (%) … (Low), 3D” value turned out to be 78.8%; the “Emax (%) … (High), 3D” value came to 81.4%.

B5: ADC4-13 (antibody, human IgG1, kappa, V domains shown)
VH: B1 VH
VL: B1 VL
modifications: conjugator-linker-payload on cysteine thiols after TCEP reduction (DAR8), maleimide hydrolysed; residues not numbered; structure given only as a drawing
B5: in the test with B7H3 [1], the “EC50 (nM) … (Low), 3D” value came out at 0.5 nM; the “EC50 (nM) … (High), 3D” value amounted to 1.6 nM; the “Emax (%) … (Low), 3D” value is 58.5%; the “Emax (%) … (High), 3D” value is 79.3%.

B6: ADC4-14 (antibody, human IgG1, kappa, V domains shown)
VH: B1 VH
VL: B1 VL
modifications: conjugator-linker-payload on cysteine thiols after TCEP reduction (DAR8), maleimide hydrolysed; residues not numbered; structure given only as a drawing
Regarding B6, in the test with B7H3 [1], the “EC50 (nM) … (Low), 3D” value was determined as 0.4 nM; the “EC50 (nM) … (High), 3D” value came to 1.3 nM; the “Emax (%) … (Low), 3D” value was 61.3%; the “Emax (%) … (High), 3D” value worked out at 81.6%.
